In PMC7435230, “Selection of a Full Agonist Combinatorial Antibody that Rescues Leptin Deficiency In Vivo” (Advanced Science, 2020):

T1: extracellular domain of human leptin receptor with C-terminal human-Fc tag (human, UniProt P48357 22-839)
T1 chain: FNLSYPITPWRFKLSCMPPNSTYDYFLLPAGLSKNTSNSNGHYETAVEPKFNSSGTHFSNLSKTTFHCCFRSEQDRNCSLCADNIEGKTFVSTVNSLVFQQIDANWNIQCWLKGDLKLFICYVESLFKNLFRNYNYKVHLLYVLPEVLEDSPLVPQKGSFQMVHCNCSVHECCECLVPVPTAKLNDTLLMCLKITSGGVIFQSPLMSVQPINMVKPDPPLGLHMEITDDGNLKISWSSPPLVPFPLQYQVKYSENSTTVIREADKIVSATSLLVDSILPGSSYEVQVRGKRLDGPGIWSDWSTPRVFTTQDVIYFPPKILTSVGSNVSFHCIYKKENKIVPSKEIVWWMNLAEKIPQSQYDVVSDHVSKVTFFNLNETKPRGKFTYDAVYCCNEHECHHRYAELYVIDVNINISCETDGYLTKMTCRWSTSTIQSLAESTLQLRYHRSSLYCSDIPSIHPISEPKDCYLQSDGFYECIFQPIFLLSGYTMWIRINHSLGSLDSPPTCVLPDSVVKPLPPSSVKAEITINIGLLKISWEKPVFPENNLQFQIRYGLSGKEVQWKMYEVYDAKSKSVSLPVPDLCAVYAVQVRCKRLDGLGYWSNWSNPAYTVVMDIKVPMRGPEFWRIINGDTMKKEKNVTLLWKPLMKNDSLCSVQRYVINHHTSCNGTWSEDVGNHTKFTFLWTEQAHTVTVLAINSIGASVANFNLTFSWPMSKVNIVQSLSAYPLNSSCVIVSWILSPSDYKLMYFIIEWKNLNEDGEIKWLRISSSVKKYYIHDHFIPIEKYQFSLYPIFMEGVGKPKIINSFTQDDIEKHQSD

B1: single-chain combinatorial antibody Ab06 (scFv-Fc) (scFv, V domains shown)
VH: QVQLVESGGGVVQPGRSLRLSCAASGFTFSSYGMHWVRQAPGKGLEWVAVISYDGSNKYYADSVKGRFTISRDNSKNTLYLQMNSLRAEDTAVYYCAKSLRNSFDYWGQGTLVTVSS
VL: EIVLTQSPGTLSLSPGERATLSCRASQSVSSNYLAWYQQKPGQAPRLLIYGASSRPTGIPDRFSGSGSGTDFTLTISRLEPEDFAVYYCQQYAASPLTFGGGTKLEIK
notes: identical to Ab11 except four residues in CDR3H; source: HEK293F, purified from supernatant (HiTrap Protein A)
B2: single-chain combinatorial antibody Ab11 (scFv-Fc) (scFv, V domains shown)
VH: QVQLVESGGGVVQPGRSLRLSCAASGFTFSSYGMHWVRQAPGKGLEWVAVISYDGSNKYYADSVKGRFTISRDNSKNTLYLQMNSLRAEDTAVYYCAKGYENYFDYWGQGTLVTVSS
VL: EIVLTQSPGTLSLSPGERATLSCRASQSVSSNYLAWYQQKPGQAPRLLIYGASSRPTGIPDRFSGSGSGTDFTLTISRLEPEDFAVYYCQQYAASPLTFGGGTKLEIK
notes: CDR3H holds the motif ENYF; source: HEK293F, purified from supernatant (HiTrap Protein A)

Experiments:
[1] = molecular target: T2, mLepR in mouse brain tissue sections (paraventricular nucleus of the hypothalamus) (Mus musculus, C57BL/6 (wild type, …, UniProt P48356)); assay: immunostaining of cells or tissue; 30 um brain sections of wild type, ob/ob and db/db mice, fixed in 4% PFA; staining as for cells; paraventricular nucleus of the hypothalamus; details: one partner purified
T2 construct: leptin receptor (LepR), mouse, endogenous in hypothalamus; Fixed tissue sections; also called LepR in tissue; source: endogenous, brain sections of wild type, ob/ob and db/db C57BL/6 mice

[2] = molecular target: T1, extracellular domain of human leptin …; assay: ELISA; competition with coated leptin, 20 nM hLepR-ECD-Fc
[3] = molecular target: T3, extracellular domain of human leptin receptor with C-terminal 6xHis tag (human, UniProt P48357); assay: SPR; Biacore T200; LepR-ECD with His tag immobilised on CM5 chip by amine coupling; leptin-Fc and scFv-Fc antibodies in PBS pH 7.4, 1:2 serial dilutions, five concentrations, as analytes; 1:1 binding model; details: both partners purified
T3 construct: leptin receptor (LepR), human, extracellular domain; also called hLepR-ECD; hLepR-ECD-His; source: HEK293F, purified from supernatant (HisTrap FF Crude); not shown: 6xHis, C-terminal, kept

[4] = molecular target: T4, mouse leptin receptor tagged with eYFP, on HEK293 cells (Mus musculus, UniProt P48356); assay: immunostaining of cells or tissue; transiently transfected HEK293 cells expressing LepR-eYFP, fixed in 4% PFA; primary antibodies 5 ug/mL at 4 C overnight; Alexa Fluor 555 goat anti-human IgG; details: one partner purified
T4 construct: leptin receptor (LepR), mouse; also called mLepR-eYFP; mLepR; source: HEK293, transiently transfected, on cells (fixed); not shown: eYFP, C-terminal, kept

[5] = molecular target: human leptin receptor tagged with eYFP, on HEK293 cells (Homo sapiens, UniProt P48357); assay: cell-based or functional assay
[6] = molecular target: T5, extracellular domain of mouse leptin receptor with C-terminal 6xHis tag (mouse, UniProt P48356); assay: SPR; Biacore T200; LepR-ECD with His tag immobilised on CM5 chip by amine coupling; leptin-Fc and scFv-Fc antibodies in PBS pH 7.4, 1:2 serial dilutions, five concentrations, as analytes; 1:1 binding model; details: both partners purified
T5 construct: leptin receptor (LepR), mouse, extracellular domain; also called mLepR-ECD; mLepR-ECD-His; source: HEK293F, purified from supernatant (HisTrap FF Crude); not shown: 6xHis, C-terminal, kept
T5 sequence (P48356 22-839): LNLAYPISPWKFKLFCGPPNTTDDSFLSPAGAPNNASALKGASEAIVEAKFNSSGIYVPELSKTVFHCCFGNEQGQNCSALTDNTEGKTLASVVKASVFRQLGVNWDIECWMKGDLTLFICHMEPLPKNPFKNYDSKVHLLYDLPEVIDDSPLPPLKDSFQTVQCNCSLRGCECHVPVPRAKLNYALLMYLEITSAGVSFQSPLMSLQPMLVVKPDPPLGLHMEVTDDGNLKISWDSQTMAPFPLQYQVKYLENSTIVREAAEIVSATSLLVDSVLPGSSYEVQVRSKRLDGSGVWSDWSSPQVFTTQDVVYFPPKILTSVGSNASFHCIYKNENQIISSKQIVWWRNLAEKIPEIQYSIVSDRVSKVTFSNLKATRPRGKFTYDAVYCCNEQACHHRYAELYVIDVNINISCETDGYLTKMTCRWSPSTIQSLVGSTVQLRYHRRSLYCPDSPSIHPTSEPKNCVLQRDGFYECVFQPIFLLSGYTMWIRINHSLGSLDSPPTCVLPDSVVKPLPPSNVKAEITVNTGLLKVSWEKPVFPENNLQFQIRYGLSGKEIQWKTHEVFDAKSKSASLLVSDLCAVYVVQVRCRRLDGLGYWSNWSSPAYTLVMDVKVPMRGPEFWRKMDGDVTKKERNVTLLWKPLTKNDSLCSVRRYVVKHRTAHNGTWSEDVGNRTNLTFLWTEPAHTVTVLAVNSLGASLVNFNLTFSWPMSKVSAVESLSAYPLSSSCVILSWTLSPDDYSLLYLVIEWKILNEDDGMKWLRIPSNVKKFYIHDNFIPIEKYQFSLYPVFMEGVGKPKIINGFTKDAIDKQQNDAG

T2 sequence (P48356 22-839): as above
T4 sequence (P48356 22-1162): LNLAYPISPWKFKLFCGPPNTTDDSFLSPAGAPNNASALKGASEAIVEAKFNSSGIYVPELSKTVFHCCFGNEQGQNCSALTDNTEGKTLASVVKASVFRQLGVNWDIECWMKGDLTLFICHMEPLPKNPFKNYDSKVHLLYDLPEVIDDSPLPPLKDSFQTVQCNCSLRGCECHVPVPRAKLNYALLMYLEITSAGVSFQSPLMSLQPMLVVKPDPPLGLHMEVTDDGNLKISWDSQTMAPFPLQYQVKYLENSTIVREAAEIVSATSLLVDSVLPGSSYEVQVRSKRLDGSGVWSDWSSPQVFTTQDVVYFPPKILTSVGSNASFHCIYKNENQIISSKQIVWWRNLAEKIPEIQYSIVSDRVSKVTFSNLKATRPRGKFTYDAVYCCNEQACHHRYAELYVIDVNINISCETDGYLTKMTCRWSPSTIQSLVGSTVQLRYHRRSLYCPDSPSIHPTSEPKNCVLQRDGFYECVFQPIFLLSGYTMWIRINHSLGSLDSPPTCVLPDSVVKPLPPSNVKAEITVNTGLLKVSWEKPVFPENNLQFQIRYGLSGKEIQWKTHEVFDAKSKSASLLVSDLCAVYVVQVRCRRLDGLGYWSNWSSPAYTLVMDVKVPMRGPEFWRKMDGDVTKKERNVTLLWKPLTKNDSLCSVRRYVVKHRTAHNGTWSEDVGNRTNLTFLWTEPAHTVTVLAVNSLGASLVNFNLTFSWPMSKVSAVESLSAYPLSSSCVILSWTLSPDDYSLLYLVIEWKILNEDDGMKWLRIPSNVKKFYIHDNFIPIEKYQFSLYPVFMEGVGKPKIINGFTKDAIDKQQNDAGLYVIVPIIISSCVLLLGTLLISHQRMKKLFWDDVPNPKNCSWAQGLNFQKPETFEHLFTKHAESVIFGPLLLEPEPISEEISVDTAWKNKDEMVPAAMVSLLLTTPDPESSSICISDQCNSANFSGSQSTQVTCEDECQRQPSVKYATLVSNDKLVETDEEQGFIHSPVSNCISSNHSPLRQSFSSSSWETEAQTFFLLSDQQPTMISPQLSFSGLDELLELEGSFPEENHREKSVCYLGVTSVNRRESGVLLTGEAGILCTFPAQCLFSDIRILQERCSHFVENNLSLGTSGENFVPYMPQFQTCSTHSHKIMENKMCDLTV

Binder | binding result [1] | IC50 [2] [nM] | Kd [3] [nM] | koff [3] [s⁻¹] | kon [3] [M⁻¹ s⁻¹] | binding result [4] | EC50, hLepR-luciferase (SIE luciferase reporter of STAT3 phosphorylation, HEK293) [5] [nM] | Kd [6] [nM]
B1 | no binding | 40 | 7.5 | 0.052 | 6.9e+06 | no binding (tested: 5 ug/mL) | 3.2 | –
B2 | – | – | – | – | – | – | – | 200
